Experimental data reported in patent US20130115170A1.
Where two headings read alike, the source gives them in different places.

T1: cholera toxin B subunit (Vibrio cholerae), P01556
T1 chain: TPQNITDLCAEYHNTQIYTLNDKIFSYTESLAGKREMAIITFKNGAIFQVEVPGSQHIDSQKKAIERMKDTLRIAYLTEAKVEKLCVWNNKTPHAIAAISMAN


Columns and labels:
[1] = target: T1, cholera toxin B subunit (Vibrio …); assay: solid-phase ELISA, competition: peptide inhibits CTB binding to GM1
[2] = target: T1, cholera toxin B subunit (Vibrio …); assay: solid-phase ELISA, inhibition of CTB binding to GM1, peptide at its IC50 for GM1
[3] = target: T1, cholera toxin B subunit (Vibrio …); assay: solid-phase ELISA, inhibition of CTB binding to F-GM1, peptide at 100 pmol/mL
[4] = target: T1, cholera toxin B subunit (Vibrio …); assay: solid-phase ELISA, inhibition of CTB binding to LOSGM1, peptide at 100 pmol/mL
[5] = target: T1, cholera toxin B subunit (Vibrio …)
[6] = target: T1, cholera toxin B subunit (Vibrio …); assay: solid-phase ELISA, inhibition of CTB binding to Lipid A, peptide at 100 pmol/mL
[7] = target: T1, cholera toxin B subunit (Vibrio …); assay: solid-phase ELISA, inhibition of CTB binding to GD1b, peptide at 100 pmol/mL

Binder | IC50 [1] | inhibition percent [2] | inhibition percent [3] | inhibition percent [4] | inhibition percent [5] | inhibition percent [6] | inhibition percent [7]
YSPFHKWFPSMH (modifications not checked) [PGM1-2] | 46.1 nM | 50% | – | – | – | – | –
IPQVWRDWFKLP (modifications not checked) [PGM1-3] | 9.6 nM | 50% | – | – | – | – | –
FPAWFTKLYPRT (modifications not checked) [PGM1-4] | 77.4 nM | 50% | – | – | – | – | –
QINTAKWWKTHF (modifications not checked) [PGM1-5] | 34.4 nM | 50% | – | – | – | – | –
DASKALRSSGMP (modifications not checked) [PGM1-6] | – | – | -0% | -0% | -0% | -0% | -0%
VSWKTWFPNLAV (modifications not checked) [PGM1-1] | 38 nM | 50% | – | – | – | – | –
